Experiments:
[1] = target: CTD (SARS-CoV-2, UniProt P0DTC9 247-364); assay: SV-AUC; […], pH 7.4; […], pH 7.4; […], pH 7.50; temperature not given; conditions: protein: recombinant; tags: N-terminal 6xHis-TEV, cleaved; chain copies: 2; single strand
[2] = target: N-protein WT (NWT) (SARS-CoV-2, UniProt P0DTC9 1-419); assay: as above; conditions: protein: recombinant; tags: N-terminal 6xHis-TEV, cleaved; chain copies: 2; single strand

Binder: TTTTTTTTTTTTTTTTTTTTTTTTTTTTTTTTTTTTTTTT (ssDNA) [T40]
- binding result [1]: binds
- binding result [2]: binds

Binder: TTTTTTTTTT (ssDNA) [T10]
- binding result [2]: binds
